In patent US20210395360A1 (published 2021):
Like-named read-outs stand apart in the source and are kept apart here.

Tests used:
[1] = molecular target: T1, human Sp35, full-length, in cell lysate (immunoprecipitation, Western) (human, UniProt Q96FE5 40-620); assay: IP
T1 construct: also called huSp35; hLINGO-1
T1 sequence: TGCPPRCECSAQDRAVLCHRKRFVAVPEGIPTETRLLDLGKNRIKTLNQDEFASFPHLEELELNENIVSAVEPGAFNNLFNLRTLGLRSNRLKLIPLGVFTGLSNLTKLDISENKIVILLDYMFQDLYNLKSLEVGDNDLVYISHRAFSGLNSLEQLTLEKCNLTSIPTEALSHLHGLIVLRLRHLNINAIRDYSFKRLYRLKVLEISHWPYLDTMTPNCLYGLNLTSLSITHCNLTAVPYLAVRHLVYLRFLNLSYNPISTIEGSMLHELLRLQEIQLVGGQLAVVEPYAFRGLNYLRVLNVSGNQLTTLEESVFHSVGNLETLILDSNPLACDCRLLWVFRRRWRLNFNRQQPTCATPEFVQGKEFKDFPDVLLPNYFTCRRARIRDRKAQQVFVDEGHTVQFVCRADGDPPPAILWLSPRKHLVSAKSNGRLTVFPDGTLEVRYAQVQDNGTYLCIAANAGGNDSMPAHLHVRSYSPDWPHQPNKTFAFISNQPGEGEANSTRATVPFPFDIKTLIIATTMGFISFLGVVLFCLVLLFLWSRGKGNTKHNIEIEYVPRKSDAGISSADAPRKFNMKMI
Protocol: (§1) To perform the immunoprecipitation, COS-1 cells expressing Sp35, fused to a hemaglutinin (HA) tag on the N-terminus, were produced by transiently transfecting COS-1 cells with a DNA construct which expresses the full-length Sp35 protein with an HA tag. Cells were harvested 48 hr after transfection and were lysed in 1 ml lysis buffer (50 mM HEPES, pH 7.5, 150 mM NaCl, 1.5 mM MgCl₂, 1 mM EGTA, 1% Triton X-100 and 10% glycerol) for 30 min at 4° C. After centrifugation at 14,000×g for 15 min, the supernatants were incubated with ProteinA/G-Sepharose beads (Santa Cruz) at 4° C. for 1 hr, and then incubated at 4° C. for 1 hr with either the 1A7 or the 2F3 anti-Sp35 murine monoclonal antibodies. The beads were washed 3 times with lysis buffer, boiled in Laemmli sample buffer, subjected to 4-20% SD S-PAGE, and analyzed by Western blotting using an antibody which recognizes the HA tag. As shown on the SDS-PAGE gel, monoclonal antibodies 1A7 and 2F3, immunoprecipitated human and murine Sp35 (FIG. 1). […] Similarly, monoclonal antibodies 1G7, 2B10, 2F3, 3P4C2.2D2, 3P4C8.2G9, Li01, Li03, Li05, Li06, Li07, Li08, Li11, Li12, 7P1D5.1G9 and 3B5.2 immunoprecipitate human or mouse or human and mouse Sp35 (See Table 3B and 3C). Additionally, Li08 immunoprecipitates AP-Sp35 and monoclonal antibodies 1B6.4 and 3E3.1 immunoprecipitate endogenous Sp35 (See Table 3B).

[2] = molecular target: T2, Sp35-Fc fusion protein (human Sp35 residues 1-532 fused to hinge and Fc of human IgG1) (human, UniProt Q96FE5 40-538); assay: ELISA
T2 construct: ran as a dimer under non-reducing conditions; also called LINGO-1-Ig; not shown: hinge and Fc region of human IgG1
T2 sequence: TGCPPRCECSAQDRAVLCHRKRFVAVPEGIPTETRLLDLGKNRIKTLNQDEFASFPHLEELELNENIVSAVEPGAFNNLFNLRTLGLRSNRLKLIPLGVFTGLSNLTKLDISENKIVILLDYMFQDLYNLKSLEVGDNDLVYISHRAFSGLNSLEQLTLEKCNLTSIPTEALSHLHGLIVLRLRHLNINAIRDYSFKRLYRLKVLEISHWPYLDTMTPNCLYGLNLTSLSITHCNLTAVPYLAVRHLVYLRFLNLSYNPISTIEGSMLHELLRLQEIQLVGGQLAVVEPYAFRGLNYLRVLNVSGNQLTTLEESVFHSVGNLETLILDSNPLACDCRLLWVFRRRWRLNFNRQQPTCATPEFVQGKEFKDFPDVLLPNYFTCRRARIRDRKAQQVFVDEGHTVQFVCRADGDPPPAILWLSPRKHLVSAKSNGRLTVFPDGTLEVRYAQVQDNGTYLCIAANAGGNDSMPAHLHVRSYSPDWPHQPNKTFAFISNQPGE
Protocol: In order to determine which regions of the Sp35 polypeptide were bound by the various hybridoma- and phage display-derived monoclonal antibodies produced in Example 2, an ELISA assay was performed using a panel of truncated Sp35 polypeptides, each fused to the hinge and Fc regions of IgG1 by the methods described in Example 1. […] Ovalbumin and BSA were used as controls. […] The affinity of these latter antibodies for mouse and rat Sp35 was restored to the level seen using human Sp35 when amino acid 419 of the mouse or rat Sp35 is changed from histidine (H) to arginine (R). Arginine is the amino acid at position 419 in human Sp35. […] AP substrate was then developed by 10 mg/ml 4NPP in 0.1 M Glycine, 1 mM MgCl₂, 1 mM ZnCl₂, pH 10.5, and read at O.D. 405.

[3] = molecular target: T3, human Sp35 protein expressed on transfected cells (human, UniProt Q96FE5 40-620); assay: IHC, transfected cells
T3 construct: also called huSp35; hLINGO-1
T3 sequence: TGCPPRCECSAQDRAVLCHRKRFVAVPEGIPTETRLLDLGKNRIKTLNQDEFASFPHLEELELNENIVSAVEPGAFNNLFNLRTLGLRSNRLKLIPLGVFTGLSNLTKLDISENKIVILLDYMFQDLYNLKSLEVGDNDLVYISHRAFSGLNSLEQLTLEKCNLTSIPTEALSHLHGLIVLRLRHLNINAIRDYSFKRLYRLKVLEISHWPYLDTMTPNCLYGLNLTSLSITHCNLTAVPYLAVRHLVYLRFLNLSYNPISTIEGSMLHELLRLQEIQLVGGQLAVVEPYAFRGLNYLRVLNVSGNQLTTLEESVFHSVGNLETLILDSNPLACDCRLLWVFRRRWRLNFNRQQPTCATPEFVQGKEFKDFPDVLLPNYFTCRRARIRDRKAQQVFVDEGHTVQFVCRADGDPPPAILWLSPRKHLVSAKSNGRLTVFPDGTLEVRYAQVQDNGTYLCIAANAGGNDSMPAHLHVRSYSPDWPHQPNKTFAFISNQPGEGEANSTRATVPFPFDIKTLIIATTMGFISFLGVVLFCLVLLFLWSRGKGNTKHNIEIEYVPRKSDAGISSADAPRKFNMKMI

[4] = molecular target: T3, human Sp35 protein expressed on …; assay: FACS, stable CHO
Ig region of Sp35 = molecular target: T4, Ig region of Sp35 (Homo sapiens (Human), UniProt Q96FE5 423-538, limits assumed); assay: ELISA
T4 sequence: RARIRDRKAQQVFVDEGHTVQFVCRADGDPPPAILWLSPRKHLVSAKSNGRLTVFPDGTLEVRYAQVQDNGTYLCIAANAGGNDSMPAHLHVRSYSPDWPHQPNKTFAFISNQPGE

[5] = molecular target: T5, mouse Sp35 protein expressed on transfected cells (mouse, UniProt Q9D1T0 36-614); assay: FACS, stable CHO
T5 construct: whole, on cells; also called mSp35; mLINGO-1
T5 sequence (looked up): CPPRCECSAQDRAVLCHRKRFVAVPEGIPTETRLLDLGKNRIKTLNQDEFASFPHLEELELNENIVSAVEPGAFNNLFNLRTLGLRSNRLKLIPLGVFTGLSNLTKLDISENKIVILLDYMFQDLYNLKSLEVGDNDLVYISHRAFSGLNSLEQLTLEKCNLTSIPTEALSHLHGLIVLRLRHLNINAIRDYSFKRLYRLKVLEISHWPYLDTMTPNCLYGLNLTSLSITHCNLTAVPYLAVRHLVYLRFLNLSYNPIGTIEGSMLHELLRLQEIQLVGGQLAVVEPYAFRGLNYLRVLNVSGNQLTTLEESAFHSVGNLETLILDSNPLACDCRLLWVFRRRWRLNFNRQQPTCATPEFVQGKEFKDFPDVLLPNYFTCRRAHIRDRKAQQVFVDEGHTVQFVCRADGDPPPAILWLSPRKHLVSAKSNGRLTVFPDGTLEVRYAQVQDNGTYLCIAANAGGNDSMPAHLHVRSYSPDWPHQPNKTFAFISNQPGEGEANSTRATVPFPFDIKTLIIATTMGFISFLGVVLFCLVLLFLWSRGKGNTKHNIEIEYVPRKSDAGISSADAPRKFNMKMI

[6] = molecular target: T6, mouse Sp35 in cell lysate (immunoprecipitation, Western) (mouse, UniProt Q9D1T0 36-614, limits assumed); assay: IP
T6 construct: also called mSp35; mLINGO-1
T6 sequence (looked up): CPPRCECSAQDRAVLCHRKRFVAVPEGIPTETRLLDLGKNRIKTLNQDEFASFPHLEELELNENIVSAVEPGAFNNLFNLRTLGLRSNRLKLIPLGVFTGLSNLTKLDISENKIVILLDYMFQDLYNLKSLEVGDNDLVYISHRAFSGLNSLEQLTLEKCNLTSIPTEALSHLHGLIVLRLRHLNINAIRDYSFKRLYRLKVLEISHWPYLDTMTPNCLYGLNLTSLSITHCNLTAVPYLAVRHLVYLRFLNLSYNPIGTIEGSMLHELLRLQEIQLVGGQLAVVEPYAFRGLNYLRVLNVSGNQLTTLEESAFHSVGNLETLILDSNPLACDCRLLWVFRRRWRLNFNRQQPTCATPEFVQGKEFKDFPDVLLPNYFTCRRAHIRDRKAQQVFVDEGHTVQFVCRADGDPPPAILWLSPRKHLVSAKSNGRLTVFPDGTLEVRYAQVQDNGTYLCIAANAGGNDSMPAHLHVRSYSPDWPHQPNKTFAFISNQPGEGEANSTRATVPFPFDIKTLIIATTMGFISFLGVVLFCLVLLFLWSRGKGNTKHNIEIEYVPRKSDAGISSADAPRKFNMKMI
Protocol: as §1

[7] = molecular target: mouse Sp35 protein expressed on transfected cells (mouse) (UniProt Q9D1T0); assay: FACS, stable CHO
[8] = molecular target: T6, mouse Sp35 in cell lysate …; assay: IP; remark: listed apart in the source

B1: 2F3 monoclonal antibody (antibody, mouse IgG2a, V domains shown)
VH: EVKLEESGGGLVQPGGSMKLSCAASGFTFSDAWLDWVRQSPEKGLEWVAEIRSKANNHATNYAESVKGRFTISRDDSKSSVYLQMNSLRAEDTGIYFCTPSFAYWGQGTTVTVSS
VL: DIQMTQSPASLSASVGETVTITCRASGNIYNYLAWFQQKQGKSPQLLVYNAKTLPDGVPSRFSGSGSGTQYFLKINSLQPEDFGSYYCQHFWAIPYTFGGGTKLEIK
notes: murine IgG2a
[1]
  binding result: binds
[2]
  binding result: binds
[3]
  binding result: binds

B2: 1A7 Fab (Fab, V domains shown)
VH: QVQLVQSGPELKKPGETVKISCKASGYTFTNYGMNWVKQAPGKGLKWMGWINTDTGEPTYTEDFQGRFAFSLETSASTVYLQFNNLKNEDTATYFCAREGVHFDYWGQGTTVTVSS
VL: QIVLTQSPAIMSASPGEKVTMTCSASSSVSYMHWYQQKSGTSPKRWIYDTSKLASGVPARFSGSGSGTSYSLTISSMEAEDAATYYCQQWSSNPFTFGSGTKLEIK
notes: Fab of murine IgG1/kappa 1A7
[4]
  FACS on stable CHO: ~1 nM

B3: 3B5.2 monoclonal antibody (ATCC PTA-8106) (antibody, mouse IgG1, V domains shown)
VH: QVQLQQPGAELVRPGTSVKLSCRASGYTFTSYWMHWVKQRPGQGLEWIGVIDPSDSYTNYNQKFRGKATLTVDTSSSTAYMQLSSLTSEDSAVYYCARPYYGSHWFFDVWGTGTTVTVSS
VL: QIVLTQSPAIMSASPGEKVTMTCSASSRVSYVHWYQQKSGTSPKRWLYDTSNLASGVPARFGGNGSGTSYSLTISSMEAEDAATYYCQQWSTNPPTFGGGTKLEIK
notes: murine IgG1/kappa; VL is named for 3B5.2; also called 3B5.5
Ig region of Sp35
  binding result: no binding
[4]
  FACS on stable CHO: < 0.4 nM
[5]
  FACS on stable CHO: 0.4 nM

B4: 30-C12 (Li01) Fab (Fab, V domains shown)
VH: EVQLLESGGGLVQPGGSLRLSCAASGFTFSKYQMTWVRQAPGKGLEWVSSIYPSGGNTVYADSVKGRFTISRDNSKNTLYLQMNSLRAEDTAVYYCASGTTEAVFDYWGQGTLVTVSS
VL: DIQMTQSPSSLSASVGDRVTITCQASQDISNYLNWYQQKPGKAPKLLIYDASNLETGVPSRFSGSGSGTDFTLTISSLQPEDFATYYCQQADRFPAVTFGGGTKVEIK
notes: human, kappa; also called Dli01
[1]
  binding result: binds
[6]
  binding result: binds

B5: D05 (full-length antibody with Li05 variable region) (antibody, V domains shown)
VH: EVQLLESGGGLVQPGGSLRLSCAASGFTFSAYAMGWVRQAPGKGLEWVSSIVSSGGYTDYADSVKGRFTISRDNSKNTLYLQMNSLRAEDTAVYYCAREGDHNAFDIWGQGTMVTVSS
VL: QSVLTQPPSVSVAPGQTARISCGGDNIGSKSVHWYQQRPGQAPVLVVYDDYDRPSGIPERFSGSNSGDTAILTITRVEVGDEADFYCQVRDSRTEERVFGGGTKVTVL
[7]
  FACS on stable CHO: 5.5 nM

B6: 80-D02 (Dli34) Fab (Fab, V domains shown)
VH: EVQLLESGGGLVQPGGSLRLSCAASGFTFSNYEMYWVRQAPGKGLEWVSGIYSSGGITVYADSVKGRFTISRDNSKNTLYLQMNSLRAEDTAVYYCARAAILDWYFDLWGRGTLVTVSS
VL: DIQMTQSPSSLSASVGDRVTITCHASQDISNYLSWYQQKPGKAPKLLIYDAFNLETGVPSRFSGSGSGTDFTFTISSLQPEDFATYYCQHYDNLPFTFGPGTRVAIR
notes: human
[8]
  binding result: binds

B7: 80-A08 (Dli33) Fab (Fab, V domains shown)
VH: EVQLLESGGGLVQPGGSLRLSCAASGFTFSIYPMFWVRQAPGKGLEWVSWIGPSGGITKYADSVKGRFTISRDNSKNTLYLQMNSLRAEDTATYYCAREGHNDWYFDLWGRGTLVTVSS
VL: DIQMTQSPGTLSLSPGERATLSCRASQSVSSYLAWYQQKPGQAPRLLIYDASNRATGIPARFSGSGSGTEFTLTISSLQSEDFAVYYCQQYDKWPLTFGGGTKVEIK
notes: human
[8]
  binding result: binds

B8: 30-B01 (Li11) Fab (Fab, V domains shown)
VH: EVQLLESGGGLVQPGGSLRLSCAASGFTFSSYAMYWVRQAPGKGLEWVSSISTSGGYTGYADSVKGRFTISRDNSKNTLYLQMNSLRAEDTAVYYCARDTSDNDYYYMDVWGKGTTVTVSS
VL: DIQMTQSPSSVSAPIGDRVTITCRASQEIANYLAWYQQKPGKAPKLLIYDTYTLQTDVPPRFSGSGSGTDFTLTISSLQPEDTATYFCQQADIFPLSFGGGTKVEIK
notes: human, kappa; also called Li011; Dli11
[6]
  binding result: binds
